Measured values reported in the Human Domainome abundance scans (Beltran et al. 2025).
± gives the uncertainty stated by the source.

B1: Ankyrin repeat and SAM domain-containing protein 6, residues 774 to 836; numbered along this chain, Q68DC2 (parent)
chain: DEDELTGILKKLSLEKYQPIFEEQEVDMEAFLTLTDGDLKELGIKTDGSRQQILAAISELNAG

Variants of: B1
Experiment: abundance fitness (aPCA) (normalised: wild type 0, dead -1); higher = more abundant; growth selection in yeast, the domain comes from the species named
Settings: Homo sapiens

Row | Variant | abundance fitness
1 | DEDELTGILKKLSLEKYQPIFEEQEVDMEAFLTLTDGDLKELGIKTDGSRQQDLAAISELNAG [I53D] | -0.33 ± 0.12
2 | DEDELTGILKKLSLEKYQPIFEEQEVDMEAFLTLTDGDLKELGIKTDGSRQQELAAISELNAG [I53E] | -0.319 ± 0.063
3 | DEDELTGILKKLSLEKYQPIFEEQEVDMEAFLTLTDGDLKELGIKTDGSRQQFLAAISELNAG [I53F] | -0.432 ± 0.1
4 | DEDELTGILKKLSLEKYQPIFEEQEVDMEAFLTLTDGDLKELGIKTDGSRQQHLAAISELNAG [I53H] | -0.481 ± 0.07
5 | DEDELTGILKKLSLEKYQPIFEEQEVDMEAFLTLTDGDLKELGIKTDGSRQQLLAAISELNAG [I53L] | -0.002 ± 0.039
6 | DEDELTGILKKLSLEKYQPIFEEQEVDMEAFLTLTDGDLKELGIKTDGSRQQMLAAISELNAG [I53M] | -0.062 ± 0.049
7 | DEDELTGILKKLSLEKYQPIFEEQEVDMEAFLTLTDGDLKELGIKTDGSRQQNLAAISELNAG [I53N] | -0.451 ± 0.068
8 | DEDELTGILKKLSLEKYQPIFEEQEVDMEAFLTLTDGDLKELGIKTDGSRQQPLAAISELNAG [I53P] | -0.44 ± 0.055
9 | DEDELTGILKKLSLEKYQPIFEEQEVDMEAFLTLTDGDLKELGIKTDGSRQQQLAAISELNAG [I53Q] | -0.686 ± 0.063
10 | DEDELTGILKKLSLEKYQPIFEEQEVDMEAFLTLTDGDLKELGIKTDGSRQQRLAAISELNAG [I53R] | -0.559 ± 0.052
11 | DEDELTGILKKLSLEKYQPIFEEQEVDMEAFLTLTDGDLKELGIKTDGSRQQSLAAISELNAG [I53S] | -0.44 ± 0.046
12 | DEDELTGILKKLSLEKYQPIFEEQEVDMEAFLTLTDGDLKELGIKTDGSRQQTLAAISELNAG [I53T] | -0.345 ± 0.058
13 | DEDELTGILKKLSLEKYQPIFEEQEVDMEAFLTLTDGDLKELGIKTDGSRQQVLAAISELNAG [I53V] | -0.104 ± 0.048
14 | DEDELTGILKKLSLEKYQPIFEEQEVDMEAFLTLTDGDLKELGIKTDGSRQQWLAAISELNAG [I53W] | -0.904 ± 0.069
15 | DEDELTGILKKLSLEKYQPIFEEQEVDMEAFLTLTDGDLKELGIKTDGSRQQIAAAISELNAG [L54A] | -0.359 ± 0.056
16 | DEDELTGILKKLSLEKYQPIFEEQEVDMEAFLTLTDGDLKELGIKTDGSRQQICAAISELNAG [L54C] | -0.075 ± 0.06
17 | DEDELTGILKKLSLEKYQPIFEEQEVDMEAFLTLTDGDLKELGIKTDGSRQQIDAAISELNAG [L54D] | -0.59 ± 0.11
18 | DEDELTGILKKLSLEKYQPIFEEQEVDMEAFLTLTDGDLKELGIKTDGSRQQIEAAISELNAG [L54E] | -0.24 ± 0.065
19 | DEDELTGILKKLSLEKYQPIFEEQEVDMEAFLTLTDGDLKELGIKTDGSRQQIFAAISELNAG [L54F] | -0.757 ± 0.093
20 | DEDELTGILKKLSLEKYQPIFEEQEVDMEAFLTLTDGDLKELGIKTDGSRQQIGAAISELNAG [L54G] | -0.433 ± 0.059
21 | DEDELTGILKKLSLEKYQPIFEEQEVDMEAFLTLTDGDLKELGIKTDGSRQQIHAAISELNAG [L54H] | -0.439 ± 0.09
22 | DEDELTGILKKLSLEKYQPIFEEQEVDMEAFLTLTDGDLKELGIKTDGSRQQIIAAISELNAG [L54I] | -0.133 ± 0.063

Row | Variant | abundance fitness
23 | DEDELTGILKKLSLEKYQPIFEEQEVDMEAFLTLTDGDLKELGIKTDGSRQQIKAAISELNAG [L54K] | -0.245 ± 0.048
24 | DEDELTGILKKLSLEKYQPIFEEQEVDMEAFLTLTDGDLKELGIKTDGSRQQIMAAISELNAG [L54M] | -0.137 ± 0.077
25 | DEDELTGILKKLSLEKYQPIFEEQEVDMEAFLTLTDGDLKELGIKTDGSRQQIPAAISELNAG [L54P] | -0.311 ± 0.053
26 | DEDELTGILKKLSLEKYQPIFEEQEVDMEAFLTLTDGDLKELGIKTDGSRQQIQAAISELNAG [L54Q] | -0.273 ± 0.065
27 | DEDELTGILKKLSLEKYQPIFEEQEVDMEAFLTLTDGDLKELGIKTDGSRQQIRAAISELNAG [L54R] | -0.337 ± 0.041
28 | DEDELTGILKKLSLEKYQPIFEEQEVDMEAFLTLTDGDLKELGIKTDGSRQQISAAISELNAG [L54S] | -0.234 ± 0.048
29 | DEDELTGILKKLSLEKYQPIFEEQEVDMEAFLTLTDGDLKELGIKTDGSRQQITAAISELNAG [L54T] | -0.312 ± 0.057
30 | DEDELTGILKKLSLEKYQPIFEEQEVDMEAFLTLTDGDLKELGIKTDGSRQQIVAAISELNAG [L54V] | -0.252 ± 0.054
31 | DEDELTGILKKLSLEKYQPIFEEQEVDMEAFLTLTDGDLKELGIKTDGSRQQIWAAISELNAG [L54W] | -0.813 ± 0.059
32 | DEDELTGILKKLSLEKYQPIFEEQEVDMEAFLTLTDGDLKELGIKTDGSRQQIYAAISELNAG [L54Y] | -0.634 ± 0.085
33 | DEDELTGILKKLSLEKYQPIFEEQEVDMEAFLTLTDGDLKELGIKTDGSRQQILCAISELNAG [A55C] | 0.046 ± 0.051
34 | DEDELTGILKKLSLEKYQPIFEEQEVDMEAFLTLTDGDLKELGIKTDGSRQQILEAISELNAG [A55E] | 0.031 ± 0.075
35 | DEDELTGILKKLSLEKYQPIFEEQEVDMEAFLTLTDGDLKELGIKTDGSRQQILFAISELNAG [A55F] | -0.256 ± 0.065
36 | DEDELTGILKKLSLEKYQPIFEEQEVDMEAFLTLTDGDLKELGIKTDGSRQQILGAISELNAG [A55G] | 0.105 ± 0.041
37 | DEDELTGILKKLSLEKYQPIFEEQEVDMEAFLTLTDGDLKELGIKTDGSRQQILIAISELNAG [A55I] | -0.203 ± 0.095
38 | DEDELTGILKKLSLEKYQPIFEEQEVDMEAFLTLTDGDLKELGIKTDGSRQQILKAISELNAG [A55K] | 0.112 ± 0.096
39 | DEDELTGILKKLSLEKYQPIFEEQEVDMEAFLTLTDGDLKELGIKTDGSRQQILLAISELNAG [A55L] | -0.159 ± 0.05
40 | DEDELTGILKKLSLEKYQPIFEEQEVDMEAFLTLTDGDLKELGIKTDGSRQQILMAISELNAG [A55M] | -0.21 ± 0.094
41 | DEDELTGILKKLSLEKYQPIFEEQEVDMEAFLTLTDGDLKELGIKTDGSRQQILNAISELNAG [A55N] | 0.014 ± 0.082
42 | DEDELTGILKKLSLEKYQPIFEEQEVDMEAFLTLTDGDLKELGIKTDGSRQQILPAISELNAG [A55P] | -0.528 ± 0.067
43 | DEDELTGILKKLSLEKYQPIFEEQEVDMEAFLTLTDGDLKELGIKTDGSRQQILQAISELNAG [A55Q] | -0.022 ± 0.068
